The source of these data is patent publication US20180003631A1.

In experiment [1] the target is T1, isolated rNav1.2a VSD IV paddle peptide with R1629A/L1630A substitutions and C-terminal K-linked biotin (rat). Nature of the experiment: site 1 of heterogeneous ligand model (ka1).
Experiment [2] has as its target T1, isolated rNav1.2a VSD IV paddle peptide …. Nature of the experiment: SPR (Biacore T200), heterogeneous ligand model, site 2. Background: In SPR one partner is held on a chip, and binding of the other changes the refractive index at the surface.
The target in experiment [3] is T2, rNav1.2a/Kv2.1 VSD IV paddle chimera (WT paddle) (rat), P15387.
T2 chain: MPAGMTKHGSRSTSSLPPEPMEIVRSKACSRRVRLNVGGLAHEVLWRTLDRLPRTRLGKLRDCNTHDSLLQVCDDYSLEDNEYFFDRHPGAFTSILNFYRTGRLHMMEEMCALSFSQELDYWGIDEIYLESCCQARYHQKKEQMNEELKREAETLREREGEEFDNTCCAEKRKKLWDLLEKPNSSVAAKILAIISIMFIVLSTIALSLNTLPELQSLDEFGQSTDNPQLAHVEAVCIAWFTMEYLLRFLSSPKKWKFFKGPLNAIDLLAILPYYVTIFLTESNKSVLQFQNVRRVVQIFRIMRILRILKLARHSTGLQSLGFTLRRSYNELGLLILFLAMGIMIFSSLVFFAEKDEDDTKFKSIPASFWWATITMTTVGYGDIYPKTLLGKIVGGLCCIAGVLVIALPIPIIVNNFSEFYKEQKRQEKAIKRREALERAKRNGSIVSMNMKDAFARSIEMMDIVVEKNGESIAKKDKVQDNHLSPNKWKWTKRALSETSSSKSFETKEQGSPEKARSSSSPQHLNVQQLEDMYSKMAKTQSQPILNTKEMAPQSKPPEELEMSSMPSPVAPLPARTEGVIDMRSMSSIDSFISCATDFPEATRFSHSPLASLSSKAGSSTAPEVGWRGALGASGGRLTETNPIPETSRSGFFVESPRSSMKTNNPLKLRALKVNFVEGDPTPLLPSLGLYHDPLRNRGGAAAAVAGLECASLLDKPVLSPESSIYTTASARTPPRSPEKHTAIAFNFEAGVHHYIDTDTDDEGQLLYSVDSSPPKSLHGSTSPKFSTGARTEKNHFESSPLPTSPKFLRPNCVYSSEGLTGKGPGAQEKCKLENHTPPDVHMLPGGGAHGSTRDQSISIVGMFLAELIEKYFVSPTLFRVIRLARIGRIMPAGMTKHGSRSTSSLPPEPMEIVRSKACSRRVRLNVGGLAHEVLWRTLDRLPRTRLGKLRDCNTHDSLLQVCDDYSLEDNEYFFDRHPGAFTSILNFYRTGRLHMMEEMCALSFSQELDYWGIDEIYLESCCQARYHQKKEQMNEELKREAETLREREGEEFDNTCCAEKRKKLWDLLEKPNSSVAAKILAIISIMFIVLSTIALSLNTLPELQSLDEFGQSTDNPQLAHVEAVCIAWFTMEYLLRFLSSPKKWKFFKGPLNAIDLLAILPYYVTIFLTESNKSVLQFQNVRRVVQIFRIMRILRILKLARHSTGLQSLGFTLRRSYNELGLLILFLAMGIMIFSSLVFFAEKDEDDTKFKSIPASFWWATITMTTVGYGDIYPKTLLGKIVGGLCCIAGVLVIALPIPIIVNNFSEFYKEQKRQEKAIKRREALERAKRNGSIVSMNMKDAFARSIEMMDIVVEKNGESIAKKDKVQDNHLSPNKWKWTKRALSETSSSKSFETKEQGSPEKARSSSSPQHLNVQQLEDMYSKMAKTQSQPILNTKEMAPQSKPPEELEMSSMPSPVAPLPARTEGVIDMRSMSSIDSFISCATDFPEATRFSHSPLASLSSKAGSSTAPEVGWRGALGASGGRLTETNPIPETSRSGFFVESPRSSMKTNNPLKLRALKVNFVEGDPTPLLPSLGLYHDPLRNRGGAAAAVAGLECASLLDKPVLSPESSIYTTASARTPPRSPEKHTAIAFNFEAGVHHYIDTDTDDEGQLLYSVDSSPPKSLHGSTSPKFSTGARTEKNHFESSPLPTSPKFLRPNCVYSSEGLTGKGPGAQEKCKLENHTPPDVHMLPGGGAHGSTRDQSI
The experiment in a line: cell-based or functional assay.

In experiment [4] the target is rNav1.2a/Kv2.1 VSD IV chimera containing the R1629A/L1630A substitutions (rat), P15387. Nature of the experiment: cell-based or functional assay.
The target in experiment [5] is T1, isolated rNav1.2a VSD IV paddle peptide …. Nature of the experiment: SPR (Biacore T200), heterogeneous ligand model, site 2, n=3, mean±SD; site 2, lower affinity KD2, n=3.
For experiment [6] the target is unchanged. The experiment in a line: SPR (Biacore T200), heterogeneous ligand model, site 1.
Experiment [7] has the same target. Nature of the experiment: SPR (Biacore T200), heterogeneous ligand model, site 1, n=3, mean±SD; site 1, high affinity KD1, n=3.
Experiment [8] has the same target. The experiment in a line: site 2 of heterogeneous ligand model (kd2).
Experiment [9] has the same target. The experiment in a line: site 2 of heterogeneous ligand model (ka2).
For experiment [10] the target is unchanged. Nature of the experiment: site 1 of heterogeneous ligand model (kd1).

B1: AaHII from Androctonus australis hector, P01484 20-83 (peptide)
chain: VKDGYIVDDVNCTYFCGRNAYCNEECTKLKGESGYCQWASPYGNACYCYKLPDHVRTKGPGRCH
modifications: not checked
What is called kon is a measure of how fast the partners come together. For orientation: Kd means the free concentration of one partner at which half of the binding sites on the other are occupied at equilibrium, for simple one-to-one binding. A low value points to higher affinity. One may read the koff as the first-order rate constant of dissociation. The low end stands for slow dissociation, the high end for fast dissociation. Consider B1, for which the kon in experiment [1] amounted to 2330 M⁻¹ s⁻¹; in [9], 38200 M⁻¹ s⁻¹. The molecule further returned an RUmax2 in [2] of 23 RU. Besides, the apparent KD (from K+ current inhibition, two-electrode voltage clamp, Xenopus oocytes) in experiment [3] was 1010 nM; in experiment [4], 193 nM. The Kd in experiment [5] came to 747 nM; in [7], 479 nM. This molecule also registered an RUmax1 in experiment [6] of 135 RU. For the same molecule, the koff worked out at 0.0281 s⁻¹ in [8] and 0.000979 s⁻¹ in experiment [10].
